From US20170122964

Test system: nucleosome on the remodeling DNA template with Atto 647N labeled histone H2B

ACF remodeling complex
FRET signal (nucleosome sliding assay): Nucleosome on the remodeling DNA template shows FRET signal, which is reduced over time by the remodeling complex.
